According to patent US20200024322A1 (Eli Lilly, published 2020):
Where a chain is given by its changes, count along the chain named. Numbered stars: 1 amine (or outer) side, 2 acyl side, 3 side chain; on linkers, the order of the positions; unused ones are H or OH. Square brackets hold non-standard residues; d marks the D form. Side chains are listed from the residue outwards. Ends that are not written are not given here. * marks the point of attachment. C20 diacid = O=C(O)CCCCCCCCCCCCCCCCCCC(=O)*; C18 diacid = O=C(O)CCCCCCCCCCCCCCCCC(=O)*; γGlu = O=C(O)[C@H](CCC(=O)[*:2])N[*:1]; AEEA = NCCOCCOCC(=O)O; Aib = CC(C)(N)C(=O)O

T1: human GIP receptor (human, UniProt P48546 22-466)
T1 construct: whole, on cells; also called hGIPR; hGIP-R
T1 sequence (looked up): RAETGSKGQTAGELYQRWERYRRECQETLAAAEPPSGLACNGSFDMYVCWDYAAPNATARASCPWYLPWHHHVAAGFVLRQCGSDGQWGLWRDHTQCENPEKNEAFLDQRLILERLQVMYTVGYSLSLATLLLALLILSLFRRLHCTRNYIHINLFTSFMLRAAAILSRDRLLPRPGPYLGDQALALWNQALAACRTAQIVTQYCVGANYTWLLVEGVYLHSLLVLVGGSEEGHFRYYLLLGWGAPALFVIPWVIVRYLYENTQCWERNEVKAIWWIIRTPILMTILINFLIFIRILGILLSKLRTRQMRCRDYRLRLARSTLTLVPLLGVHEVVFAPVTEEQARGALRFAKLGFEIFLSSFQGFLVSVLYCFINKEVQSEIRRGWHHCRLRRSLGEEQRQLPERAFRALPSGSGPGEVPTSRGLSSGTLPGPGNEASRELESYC

B1: Example 294 (peptide)
peptide: Y[Aib]EGTFTSDYSILLDKK([AEEA-AEEA-γGlu-C18 diacid])AQQAFIEYLIEGG-NH2
modifications: N-terminus assumed
SMILES: CC[C@H](C)[C@H](NC(=O)[C@H](CC(C)C)NC(=O)[C@H](Cc1ccc(O)cc1)NC(=O)[C@H](CCC(=O)O)NC(=O)[C@@H](NC(=O)[C@H](Cc1ccccc1)NC(=O)[C@H](C)NC(=O)[C@H](CCC(N)=O)NC(=O)[C@H](CCC(N)=O)NC(=O)[C@H](C)NC(=O)[C@H](CCCCNC(=O)COCCOCCNC(=O)COCCOCCNC(=O)CC[C@H](NC(=O)CCCCCCCCCCCCCCCCC(=O)O)C(=O)O)NC(=O)[C@H](CCCCN)NC(=O)[C@H](CC(=O)O)NC(=O)[C@H](CC(C)C)NC(=O)[C@H](CC(C)C)NC(=O)[C@@H](NC(=O)[C@H](CO)NC(=O)[C@H](Cc1ccc(O)cc1)NC(=O)[C@H](CC(=O)O)NC(=O)[C@H](CO)NC(=O)[C@@H](NC(=O)[C@H](Cc1ccccc1)NC(=O)[C@@H](NC(=O)CNC(=O)[C@H](CCC(=O)O)NC(=O)C(C)(C)NC(=O)[C@@H](N)Cc1ccc(O)cc1)[C@@H](C)O)[C@@H](C)O)[C@@H](C)CC)[C@@H](C)CC)C(=O)N[C@@H](CCC(=O)O)C(=O)NCC(=O)NCC(N)=O
B2: Example 300 (peptide)
peptide: YXEGTFTSDYSIXLDKKAQXAFIEYLIEGGPSSG
modifications: Aib2; αMeL13; K17((2-[2-(2-Amino-ethoxy)-ethoxy]-acetyl)2-(γ-Glu)-CO-(CH2)16-CO2H); Aib20; C-terminal NH2
B3: Example 302 (peptide)
peptide: B2 peptide with F6X, X13L
modifications: Aib2; αMeF(2F)6; K17((2-[2-(2-Amino-ethoxy)-ethoxy]-acetyl)2-(γ-Glu)-CO-(CH2)16-CO2H); Aib20; C-terminal NH2
B4: Example 301 (peptide)
peptide: B2 peptide with F6X, X13L
modifications: Aib2; αMeF6; K17((2-[2-(2-Amino-ethoxy)-ethoxy]-acetyl)2-(γ-Glu)-CO-(CH2)16-CO2H); Aib20; C-terminal NH2
notes: also called GG-650
B5: Example 309 (peptide)
peptide: B2 peptide with F6X, X13L, E28A
modifications: Aib2; αMeF6; K17((2-[2-(2-Amino-ethoxy)-ethoxy]-acetyl)2-(γ-Glu)-CO-(CH2)16-CO2H); Aib20; C-terminal NH2
B6: Example 303 (peptide)
peptide: B2 peptide with K16E
modifications: Aib2; αMeL13; K17((2-[2-(2-Amino-ethoxy)-ethoxy]-acetyl)2-(γ-Glu)-CO-(CH2)16-CO2H); Aib20; C-terminal NH2
B7: Example 313 (peptide)
peptide: B2 peptide with F6X, X13L, E28A
modifications: Aib2; αMeF(2F)6; K17((2-[2-(2-Amino-ethoxy)-ethoxy]-acetyl)2-(γ-Glu)-CO-(CH2)16-CO2H); Aib20; C-terminal NH2
B8: Example 308 (peptide)
peptide: B2 peptide with F6X, X13L, A21E
modifications: Aib2; αMeF6; K17((2-[2-(2-Amino-ethoxy)-ethoxy]-acetyl)2-(γ-Glu)-CO-(CH2)16-CO2H); Aib20; C-terminal NH2
B9: Example 312 (peptide)
peptide: B2 peptide with F6X, X13L, A21E
modifications: Aib2; αMeF(2F)6; K17((2-[2-(2-Amino-ethoxy)-ethoxy]-acetyl)2-(γ-Glu)-CO-(CH2)16-CO2H); Aib20; C-terminal NH2
B10: Example 314 (peptide)
peptide: B2 peptide with F6X, X13L, A21E, E28A
modifications: Aib2; αMeF(2F)6; K17((2-[2-(2-Amino-ethoxy)-ethoxy]-acetyl)2-(γ-Glu)-CO-(CH2)16-CO2H); Aib20; C-terminal NH2
B11: Example 305 (peptide)
peptide: B2 peptide with E28A
modifications: Aib2; αMeL13; K17((2-[2-(2-Amino-ethoxy)-ethoxy]-acetyl)2-(γ-Glu)-CO-(CH2)16-CO2H); Aib20; C-terminal NH2
B12: Example 310 (peptide)
peptide: B2 peptide with F6X, X13L, A21E, E28A
modifications: Aib2; αMeF6; K17((2-[2-(2-Amino-ethoxy)-ethoxy]-acetyl)2-(γ-Glu)-CO-(CH2)16-CO2H); Aib20; C-terminal NH2
B13: Example 311 (peptide)
peptide: B2 peptide with F6X, X13L, K16E
modifications: Aib2; αMeF(2F)6; K17((2-[2-(2-Amino-ethoxy)-ethoxy]-acetyl)2-(γ-Glu)-CO-(CH2)16-CO2H); Aib20; C-terminal NH2
B14: Example 307 (peptide)
peptide: B2 peptide with F6X, X13L, K16E
modifications: Aib2; αMeF6; K17((2-[2-(2-Amino-ethoxy)-ethoxy]-acetyl)2-(γ-Glu)-CO-(CH2)16-CO2H); Aib20; C-terminal NH2
B15: Example 324 (peptide)
peptide: YXEGTFTSDYSIXLDKKAQXAFIEYLIAGGPSSGAPPPS
modifications: Aib2; αMeL13; K17((2-[2-(2-Amino-ethoxy)-ethoxy]-acetyl)2-(γ-Glu)-CO-(CH2)18-CO2H); Aib20; C-terminal NH2
B16: Example 340 (peptide)
peptide: B15 peptide with Y1X
modifications: D-Tyr1; Aib2; αMeL13; K17((2-[2-(2-Amino-ethoxy)-ethoxy]-acetyl)2-(γ-Glu)-CO-(CH2)18-CO2H); Aib20; C-terminal NH2
B17: Example 293 (peptide)
peptide: B15 peptide with Y1X, K16X, A21E, Y25X
modifications: D-Tyr1; Aib2; αMeL13; Orn16; K17((2-[2-(2-Amino-ethoxy)-ethoxy]-acetyl)2-(γ-Glu)-CO-(CH2)18-CO2H); Aib20; αMeY25; C-terminal NH2
B18: Example 292 (peptide)
peptide: B15 peptide with Y1X, A21E, Y25X
modifications: D-Tyr1; Aib2; αMeL13; K17((2-[2-(2-Amino-ethoxy)-ethoxy]-acetyl)2-(γ-Glu)-CO-(CH2)18-CO2H); Aib20; αMeY25; C-terminal NH2
B19: Example 323 (peptide)
peptide: B15 peptide with K16E, A28E
modifications: Aib2; αMeL13; K17((2-[2-(2-Amino-ethoxy)-ethoxy]-acetyl)2-(γ-Glu)-CO-(CH2)16-CO2H); Aib20; C-terminal NH2
B20: Example 341 (peptide)
peptide: B15 peptide with Y1X, K16E
modifications: D-Tyr1; Aib2; αMeL13; K17((2-[2-(2-Amino-ethoxy)-ethoxy]-acetyl)2-(γ-Glu)-CO-(CH2)18-CO2H); Aib20; C-terminal NH2
B21: Example 332 (peptide)
peptide: B15 peptide with K16E
modifications: Aib2; αMeL13; K17((2-[2-(2-Amino-ethoxy)-ethoxy]-acetyl)2-(γ-Glu)-CO-(CH2)18-CO2H); Aib20; C-terminal NH2
B22: Example 327 (peptide)
peptide: B15 peptide with Y1F, A28E
modifications: Aib2; αMeL13; K17((2-[2-(2-Amino-ethoxy)-ethoxy]-acetyl)2-(γ-Glu)-CO-(CH2)18-CO2H); Aib20; C-terminal NH2
B23: Example 337 (peptide)
peptide: B15 peptide with Y1F
modifications: Aib2; αMeL13; K17((2-[2-(2-Amino-ethoxy)-ethoxy]-acetyl)2-(γ-Glu)-CO-(CH2)18-CO2H); Aib20; C-terminal NH2
B24: Example 290 (peptide)
peptide: B15 peptide with Y1X, A21E
modifications: D-Tyr1; Aib2; αMeL13; K17((2-[2-(2-Amino-ethoxy)-ethoxy]-acetyl)2-(γ-Glu)-CO-(CH2)18-CO2H); Aib20; C-terminal NH2
B25: Example 339 (peptide)
peptide: B15 peptide with A21E
modifications: Aib2; αMeL13; K17((2-[2-(2-Amino-ethoxy)-ethoxy]-acetyl)-(γ-Glu)-CO-(CH2)18-CO2H); Aib20; C-terminal NH2
B26: Example 334 (peptide)
peptide: B15 peptide with Y1X, A28E
modifications: D-Tyr1; Aib2; αMeL13; K17((2-[2-(2-Amino-ethoxy)-ethoxy]-acetyl)2-(γ-Glu)-CO-(CH2)18-CO2H); Aib20; C-terminal NH2
B27: Example 333 (peptide)
peptide: B15 peptide with A21E, A28E
modifications: Aib2; αMeL13; K17((2-[2-(2-Amino-ethoxy)-ethoxy]-acetyl)2-(γ-Glu)-CO-(CH2)18-CO2H); Aib20; C-terminal NH2

Target: T2, human glucagon receptor (human, UniProt P47871 26-477)
T2 construct: whole, on cells; also called hGcgR; GcgR
T2 sequence (P47871 26-477): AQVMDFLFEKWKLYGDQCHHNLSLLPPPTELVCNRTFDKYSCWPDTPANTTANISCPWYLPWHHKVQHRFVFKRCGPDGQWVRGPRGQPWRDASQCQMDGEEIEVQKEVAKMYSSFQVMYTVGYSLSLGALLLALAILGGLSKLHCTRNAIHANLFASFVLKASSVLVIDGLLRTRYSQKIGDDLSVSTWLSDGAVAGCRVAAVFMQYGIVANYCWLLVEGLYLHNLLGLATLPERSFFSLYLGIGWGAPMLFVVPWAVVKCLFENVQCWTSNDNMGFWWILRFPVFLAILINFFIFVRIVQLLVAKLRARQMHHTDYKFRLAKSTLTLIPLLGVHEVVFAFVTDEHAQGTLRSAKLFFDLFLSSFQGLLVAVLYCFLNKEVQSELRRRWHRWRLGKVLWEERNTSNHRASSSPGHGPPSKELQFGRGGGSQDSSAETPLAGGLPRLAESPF
Assay: [125I]-Gcg competition SPA, hGcgR membranes

| Binder | Ki [nM] |
| --- | --- |
| B1 | 629 |
| B2 | 251 |
| B3 | 18.5 |
| B4 | 44.4 |
| B5 | 64.1 |
| B6 | 502 |
| B7 | 27.6 |
| B8 | 94.2 |
| B9 | 106 |
| B10 | 116 |
| B11 | 352 |
| B12 | 174 |
| B13 | 115 |
| B14 | 117 |
| B15 | 449 |
| B16 | 250 |
| B17 | 668 |
| B18 | 595 |
| B19 | 300 |
| B20 | 39.7 |
| B21 | 397 |
| B22 | 114 |
| B23 | 335 |
| B24 | 308 |
| B25 | 873 |
| B26 | 192 |
| B27 | 578 |
| F[Aib]EGTFTSDYSILLDKK([AEEA-AEEA-γGlu-C20 diacid])AQ[Aib]AFIEYLIEGGPSSGAPPPS-NH2 [Example 326] | 207 |

Target: T3, human GLP-1 receptor (human, UniProt P43220 24-463)
T3 construct: whole, on cells; also called hGLP-1R; hGLP1R
Assay: [125I]-GLP-1 competition SPA, hGLP-1R membranes
In short: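 Competition binding in 25 mM HEPES pH 7.4, 2.5 mM CaCl₂, 1 mM MgCl₂, 0.1% bacitracin, 0.003% TWEEN-20, EDTA-free protease inhibitors. IC₅₀ from four-parameter nonlinear fit; Kᵢ given as geometric mean ± SEM, n = independent replicates on different days.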

| Binder | Ki [nM] |
| --- | --- |
| B1 | 2.92 |
| B2 | 2.13 |
| B3 | 0.617 |
| B4 | 0.875 |
| B5 | 1.04 |
| B6 | 3.69 |
| B7 | 0.815 |
| B8 | 1.01 |
| B9 | 1.63 |
| B10 | 0.717 |
| B11 | 0.83 |
| B12 | 1.7 |
| B13 | 11.5 |
| B14 | 5.1 |
| B15 | 0.609 |
| B16 | 2.08 |
| B17 | 1.64 |
| B18 | 1.19 |
| B19 | 1.65 |
| B20 | 6.49 |
| B21 | 7.87 |
| B22 | 2.1 |
| B23 | 1.61 |
| B24 | 2.44 |
| B25 | 2.69 |
| B26 | 2.17 |
| B27 | 4.25 |
| F[Aib]EGTFTSDYSILLDKK([AEEA-AEEA-γGlu-C20 diacid])AQ[Aib]AFIEYLIEGGPSSGAPPPS-NH2 [Example 326] | 2.92 |

Target: T1, human GIP receptor
Assay: [125I]-GIP competition SPA, hGIPR membranes

| Binder | Ki [nM] |
| --- | --- |
| B1 | 0.205 |
| B2 | 0.0504 |
| B3 | 0.0289 |
| B4 | 0.0273 |
| B5 | 0.0264 |
| B6 | 0.058 |
| B7 | 0.0261 |
| B8 | 0.0288 |
| B9 | 0.0348 |
| B10 | 0.027 |
| B11 | 0.025 |
| B12 | 0.0315 |
| B13 | 0.0497 |
| B14 | 0.0773 |
| B15 | 0.0278 |
| B16 | 0.0507 |
| B17 | 0.0775 |
| B18 | 0.0547 |
| B19 | 0.0516 |
| B20 | 0.0559 |
| B21 | 0.0497 |
| B22 | 0.0667 |
| B23 | 0.0363 |
| B24 | 0.0617 |
| B25 | 0.0388 |
| B26 | 0.0646 |
| B27 | 0.0634 |
| F[Aib]EGTFTSDYSILLDKK([AEEA-AEEA-γGlu-C20 diacid])AQ[Aib]AFIEYLIEGGPSSGAPPPS-NH2 [Example 326] | 0.251 |
